This note sets out measurements from US20090098175A1 (AFFINERGY, published 2009).

One assay deals with T1, PDGF-BB (UniProt P01127 82-190).
T1 construct: also called platelet-derived growth factor
The assay can be described thus: plate assay: biotinylated peptide on streptavidin plate, growth factor titrated, antibody/AP detection. The procedure:
(§1) Briefly, peptides comprising an amino acid sequence of each of SEQ ID NOs: 1-3 were biotinylated to facilitate immobilization on streptavidin-coated 96-well plates. The microtiter plates were coated with streptavidin by adding 50 μl of a 10 μg/ml streptavidin solution in 0.1 M NaHCO₃, and incubating the plates for at least 3 hours. The plate wells were blocked by adding 150 μl of a 1% BSA solution in 0.1 NaHCO₃, and the plates were stored at 4° C. until needed. Before use, the streptavidin plates were washed extensively in buffer-T. Peptides were then added at 20 pmol per well in 100 μl of high-salt buffer-T (containing 500 mM NaCl), and then incubated for 1 hour at room temperature with shaking. 150 μl of 0.5 mM biotin in H₂O was added to block the remaining streptavidin sites, and plates were incubated for an additional hour. Plates were then washed with TBS-T to remove the excess biotin and peptide. Serial dilutions of growth factor (including fibrous connective tissue-inducing growth factors GDF-7, GDF-5, BMP-2, and BMP-6,; and growth factors other than fibrous connective tissue-inducing growth factors, such as BMP-5, TGF-β, TGF-β3, or PDGF-BB) in high-salt buffer-T were added (100 μl) to each well, representing a range of concentrations between 0.01 nM and 100 nM. Plates were incubated for 1 hour at room temperature with shaking prior to washing several times with TBS-T. Growth factors were then detected using 100 μl of the appropriate dilutions of primary antibodies specific for the growth factor being detected. After washing with buffer-T, 100 μl of alkaline phosphatase-conjugated secondary antibody was added to each well and incubated at room temperature for 45 minutes. Excess secondary antibody was removed by repeated washes with buffer-T, and the amount of alkaline phosphatase remaining in the well was detected using a pNPP (para-nitrophenylphos-phate) colorimetric enzymatic assay. The amount of growth factor captured by the peptides was determined by measuring the absorbance at 405 nm of the colored product of the alkaline phosphatase reaction.

The target of the next assay is T2, TGF-β3 (UniProt P10600 301-412).
T2 sequence (looked up): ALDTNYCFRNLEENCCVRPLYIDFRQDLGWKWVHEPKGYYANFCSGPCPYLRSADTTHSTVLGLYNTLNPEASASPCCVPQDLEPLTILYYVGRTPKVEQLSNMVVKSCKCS
The assay is described as above. The procedure: as §1

Another assay has as its target TGF-β1 (UniProt P01137 279-390). The assay is described as above. The method, then: as §1
The target of the next assay is T3, BMP-6 (UniProt P22004 382-513, limits assumed).
T3 construct: also called bone morphogenetic protein 6
T3 sequence (looked up): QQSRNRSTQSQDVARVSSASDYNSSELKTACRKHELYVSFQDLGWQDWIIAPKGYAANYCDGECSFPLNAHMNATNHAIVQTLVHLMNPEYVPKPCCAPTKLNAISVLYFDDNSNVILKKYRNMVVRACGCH
The assay can be described thus: plate assay: biotinylated peptide on streptavidin plate, growth factor titrated 0.01-100 nM, antibody/AP detection. The procedure:
as §1

Assay [1] concerns the target T4, GDF-7 (UniProt Q7Z4P5 322-450, limits assumed).
T4 construct: also called BMP-12; growth and differentiation factor 7
T4 sequence (looked up): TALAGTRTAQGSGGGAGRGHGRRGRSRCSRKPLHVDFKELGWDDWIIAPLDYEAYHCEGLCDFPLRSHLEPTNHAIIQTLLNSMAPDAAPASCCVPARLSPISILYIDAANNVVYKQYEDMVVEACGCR
Described as above. The method, then:
as §1

In a further assay the target is T5, GDF-5 (UniProt P43026 382-501).
T5 construct: also called BMP-14
T5 sequence (looked up): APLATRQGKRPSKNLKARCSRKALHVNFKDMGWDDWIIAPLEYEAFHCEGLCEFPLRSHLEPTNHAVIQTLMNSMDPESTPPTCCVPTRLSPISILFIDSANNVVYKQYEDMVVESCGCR
Described as above. The method, then: as §1

A further assay addresses T6, BMP-2 (UniProt P12643 283-396).
T6 construct: also called bone morphogenetic protein 2
The assay is described as above. The method, then:
as §1

A further assay deals with T7, BMP-5 (UniProt P22003 317-454, limits assumed).
T7 construct: also called bone morphogenetic protein 5
T7 sequence (looked up): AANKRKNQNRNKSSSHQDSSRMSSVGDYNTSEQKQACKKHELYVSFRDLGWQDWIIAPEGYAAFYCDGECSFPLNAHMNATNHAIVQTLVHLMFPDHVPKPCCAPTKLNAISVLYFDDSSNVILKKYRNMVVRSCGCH
The description is as above. The method, then: as §1

Assay [2] addresses T8, GDF-7 (UniProt Q7Z4P5 322-450).
T8 chain: T4 sequence (looked up)
The assay can be described thus: GDF-7 capture on sutures.

Where no end group is shown, it is not given here. [ ]: non-standard residue; d: D form. The star is where a group is joined. Biotin = O=C1N[C@H]2[C@H](CS[C@H]2CCCCC(=O)*)N1

T1 sequence (P01127 82-190 limits assumed): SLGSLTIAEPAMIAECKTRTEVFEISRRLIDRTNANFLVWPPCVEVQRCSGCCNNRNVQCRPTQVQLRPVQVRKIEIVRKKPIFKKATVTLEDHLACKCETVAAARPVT
T6 sequence (P12643 283-396 limits assumed): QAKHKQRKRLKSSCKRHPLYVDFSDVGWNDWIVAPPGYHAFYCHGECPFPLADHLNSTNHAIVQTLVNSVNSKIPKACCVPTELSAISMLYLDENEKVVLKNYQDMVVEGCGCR
TGF-β1, sequence (P01137 279-390 limits assumed): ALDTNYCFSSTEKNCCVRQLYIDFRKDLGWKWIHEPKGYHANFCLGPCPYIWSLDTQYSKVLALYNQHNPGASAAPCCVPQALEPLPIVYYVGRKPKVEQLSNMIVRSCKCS

B1: SEQ ID NO 2 (peptide)
peptide: SSGGVGGWALFETLRGKEVSR
modifications: not fully specified (residues 1, 2, 20, 21); printed as ssGGVGGWALFETLRGKEVsr; also: biotinylated, site not given here
Take B1: the binding result with PDGF-BB, with TGF-β3 and with TGF-β1 was “no binding (tested: growth factor 0.01 nM to 100 nM)” throughout. Moreover, the 50% effective concentration (EC50) with BMP-6 is below 10 nM; with GDF-7 [1], below 1 nM; with GDF-5 it was below 10 nM; in the assay with BMP-2, below 10 nM; in the assay with BMP-5 it was below 100 nM.

B2: 780P (peptide)
chain 1: SWWGFWNGSAAPVWSR
chain 2: SSGGVGGWALFETLRGKEVSR
chain 3: GSSGK(Biotin)
modifications: not fully specified (some residues, C-terminus); also: chains 1-3 joined as one linear peptide (67-GSSG-2-GSSGK)
In turn, B2 had an EC50 with GDF-7 [2] above 100 nM.

For [code s][code s]GPREIWDSLVGVVNPGW[code s][code r] (also: biotinylated, site not given here) [SEQ ID NO 1], the binding result with PDGF-BB, in the assay with TGF-β3 and with TGF-β1 was “no binding (tested: growth factor 0.01 nM to 100 nM)” throughout. For the same molecule, the 50% effective concentration (EC50) with BMP-6 was below 10 nM; with GDF-7 [1] it was below 1 nM; with GDF-5, below 10 nM; with BMP-2 it was below 10 nM; with BMP-5, below 100 nM.

On to [code s][code s]VAEWALRSWEGMRVGEA[code s][code r] (also: biotinylated, site not given here) [SEQ ID NO 3], for which the binding result with PDGF-BB, in the assay with TGF-β3 and with TGF-β1 was “no binding (tested: growth factor 0.01 nM to 100 nM)” throughout. Besides, the EC50 with BMP-6 is below 10 nM; with GDF-7 [1] it was below 1 nM; in the assay with GDF-5, below 10 nM; with BMP-2, below 10 nM; in the assay with BMP-5, below 100 nM.
